This passage reports half-life of activated FVIII (Xase assay, A2-domain stability) (fold (against WT hBFVIII)) and half-life of activated FVIII cofactor activity after thrombin activation (purified component Xase assay or clotting assay) (fold (against hFVIII)) results from patent publication US10442850.

Assay [1] has as its target A1/A3-C1-C2 part of thrombin-activated human FVIII-BDD R1645H (human) (UniProt P00451). In words: cell-based or functional assay.
Assay [2] addresses A1/A3-C1-C2 part of thrombin-activated cFVIII-BDD (canine) (UniProt O18806). The experiment in a line: cell-based or functional assay.
Chain of UniProt O18806 (O18806 20-385, chain 1 of 2): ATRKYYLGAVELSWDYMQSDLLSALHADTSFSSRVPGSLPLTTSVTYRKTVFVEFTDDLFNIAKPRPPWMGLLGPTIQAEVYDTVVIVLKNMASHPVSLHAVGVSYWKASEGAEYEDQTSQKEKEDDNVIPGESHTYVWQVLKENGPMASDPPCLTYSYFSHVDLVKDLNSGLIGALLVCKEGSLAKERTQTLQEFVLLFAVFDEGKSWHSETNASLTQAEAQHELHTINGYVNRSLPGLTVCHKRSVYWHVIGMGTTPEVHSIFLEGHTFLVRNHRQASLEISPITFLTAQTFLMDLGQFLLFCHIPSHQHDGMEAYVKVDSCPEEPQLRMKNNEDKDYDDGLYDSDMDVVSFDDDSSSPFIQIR
Chain of UniProt O18806 (O18806 1701-2343, chain 2 of 2): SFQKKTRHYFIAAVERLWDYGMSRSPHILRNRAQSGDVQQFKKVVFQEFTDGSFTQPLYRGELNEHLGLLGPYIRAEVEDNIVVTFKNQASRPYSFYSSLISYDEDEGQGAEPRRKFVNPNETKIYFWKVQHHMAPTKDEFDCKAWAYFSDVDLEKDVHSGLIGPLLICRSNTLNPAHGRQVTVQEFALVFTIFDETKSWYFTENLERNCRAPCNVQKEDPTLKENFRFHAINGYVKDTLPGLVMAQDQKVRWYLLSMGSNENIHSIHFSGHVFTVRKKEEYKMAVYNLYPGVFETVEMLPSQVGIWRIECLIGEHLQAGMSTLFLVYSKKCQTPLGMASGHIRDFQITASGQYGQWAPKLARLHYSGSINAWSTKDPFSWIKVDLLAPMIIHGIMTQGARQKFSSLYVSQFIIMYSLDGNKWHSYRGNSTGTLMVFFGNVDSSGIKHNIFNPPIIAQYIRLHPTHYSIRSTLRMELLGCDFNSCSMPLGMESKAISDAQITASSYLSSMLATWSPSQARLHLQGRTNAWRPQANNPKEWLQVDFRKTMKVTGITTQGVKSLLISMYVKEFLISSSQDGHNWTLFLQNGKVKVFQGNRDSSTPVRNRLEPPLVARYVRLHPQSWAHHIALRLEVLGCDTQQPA

Chain of UniProt P00451 (P00451 20-391, chain 1 of 2): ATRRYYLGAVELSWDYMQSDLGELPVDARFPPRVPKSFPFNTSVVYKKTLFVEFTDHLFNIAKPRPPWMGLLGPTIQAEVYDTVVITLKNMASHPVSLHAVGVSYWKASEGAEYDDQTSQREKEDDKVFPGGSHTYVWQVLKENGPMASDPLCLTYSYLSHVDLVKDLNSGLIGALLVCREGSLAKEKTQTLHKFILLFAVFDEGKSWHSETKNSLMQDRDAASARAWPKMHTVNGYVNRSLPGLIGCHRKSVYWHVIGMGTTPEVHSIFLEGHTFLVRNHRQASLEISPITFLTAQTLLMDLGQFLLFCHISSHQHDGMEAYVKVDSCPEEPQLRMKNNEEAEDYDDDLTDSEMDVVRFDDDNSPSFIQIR
Chain of UniProt P00451 (P00451 1709-2351, chain 2 of 2): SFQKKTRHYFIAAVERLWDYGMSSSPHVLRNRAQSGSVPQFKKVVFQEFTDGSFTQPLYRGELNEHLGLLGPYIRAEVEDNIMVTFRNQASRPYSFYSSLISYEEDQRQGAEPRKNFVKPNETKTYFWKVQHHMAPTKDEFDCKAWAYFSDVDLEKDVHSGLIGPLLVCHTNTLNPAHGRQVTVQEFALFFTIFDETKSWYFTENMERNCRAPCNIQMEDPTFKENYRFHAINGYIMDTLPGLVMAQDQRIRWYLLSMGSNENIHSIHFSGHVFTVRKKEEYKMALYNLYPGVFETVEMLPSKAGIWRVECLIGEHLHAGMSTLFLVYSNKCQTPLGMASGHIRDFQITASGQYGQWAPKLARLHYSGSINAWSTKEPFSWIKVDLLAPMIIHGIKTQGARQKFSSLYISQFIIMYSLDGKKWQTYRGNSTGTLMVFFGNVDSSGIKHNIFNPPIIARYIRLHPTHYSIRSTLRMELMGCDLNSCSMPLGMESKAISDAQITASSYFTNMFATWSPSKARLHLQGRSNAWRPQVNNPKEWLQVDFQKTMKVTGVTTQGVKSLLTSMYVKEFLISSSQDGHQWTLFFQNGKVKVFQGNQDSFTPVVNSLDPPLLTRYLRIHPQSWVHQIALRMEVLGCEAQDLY

With “A2 domain of thrombin-activated human FVIII-BDD R1645H (from UniProt P00451 392-759)”, the half-life of activated FVIII (Xase assay, A2-domain stability) (fold (against WT hBFVIII)) in assay [1] came to 3. For “A2 domain of thrombin-activated cFVIII-BDD (from UniProt O18806 386-753)”, the half-life of activated FVIII cofactor activity after thrombin activation (purified component Xase assay or clotting assay) (fold (against hFVIII)) in assay [2] amounted to 3.
